# According to publication PMC12289034, “A highly potent human antibody neutralizing all serotypes of BK polyomavirus” (PLOS Pathogens, 2025):
# Legend:
# [1] = biological target: BKPyV VP1 serotype Ib1 pentamer (aa 31-300) (BK polyomavirus) (UniProt P03088); test: crystal structure; VP1 Ib1 pentamer mixed with 319C07 Fab 1:1.7, complex isolated by SEC; hanging drop, 20 °C, 21% PEG1500, 0.1 M MIB pH 4.75; 1.96 Å
# [2] = biological target: T1, BKPyV VP1 serotype II pentamer (aa 31-300) (BK polyomavirus serotype II, isolate …, UniProt A1IHZ0, strain); test: cell-based or functional assay
# [3] = biological target: T2, BKPyV VP1 serotype III (BK polyomavirus, serotype III (isolate …, UniProt P14996, strain)); test: cell-based or functional assay
# [4] = biological target: T3, BKPyV VP1 serotype IVc2 pentamer (aa 31-300) (BK polyomavirus serotype IVc2, isolate …, UniProt B6VQF5, strain); test: cell-based or functional assay
# [5] = biological target: T1, BKPyV VP1 serotype II pentamer (aa …); test: ELISA; VP1 coated on the plate (1 µg/ml, 4 °C over weekend), blocked with 5% skim milk; antibody dilutions in PBS with 0.5% skim milk 1 h; HRP goat anti-human IgG; apparent EC50, three-parameter fit; conditions: both partners purified
# [6] = biological target: T2, BKPyV VP1 serotype III; test: as above; conditions: both partners purified
# [7] = biological target: T3, BKPyV VP1 serotype IVc2 pentamer (aa …); test: as above; conditions: both partners purified
Molecule,stoichiometry N [1],"IC50 of neutralisation of BKPyV serotype II pseudovirus (luciferase in HEK293TT cells, 72 h) [2] [pM]","IC50 of neutralisation of BKPyV serotype III pseudovirus (luciferase in HEK293TT cells, 72 h) [3] [pM]","IC50 of neutralisation of BKPyV serotype IV pseudovirus (luciferase in HEK293TT cells, 72 h) [4] [pM]",EC50 [5] [pM],EC50 [6] [pM],EC50 [7] [pM]
BKPyV VP1 serotype Ib1 pentamer (aa 31-300) (from UniProt P03088 31-300) (domain or fragment),5,,,,,,
"mAb 319C07 (antibody, V domains shown, heavy chain variable region of 319C07; human IgG1 heavy chain constant region (soluble IgG1 expression vector); kappa light chain of 319C07; also called antibody 319C07; AntiBKV; source: HEK293F, transient transfection, purified from supernatant (Protein G)) VH: QVQLQQWGAGLLKPSETLSLTCAVYRGSFSAYYWTWFRQPPGKGLEWIGEINHRGYTNYNPSLRGRVSISVDTSKKQFSLKLRSVNAADTAVYYCATLRSTSGWHDYFDYWGQGTLVTVSS VL: EIVLTQSPGTLSLSPGERATLSCRASQSVSSSYLAWYQQTPGQAPRLLIYGASSRATGIPDRFSGSGSGTDFTLTISRLEPEDFVVYFCLQYGSSPLTFGPGTKVDIK",,0.35,29.5,0.88,60,60,60
